Data published in patent CN112592405A (BIOSION BIO TECH NANJING CO LTD, dated 2021).

Biological target: T1, 人BCMA-His抗原 (ACRO, Cat#BCA-H522y) (human, UniProt Q02223 1-54)
T1 construct: Bought recombinant protein; also called human BCMA-His; 人BCMA蛋白; not shown: His tag
T1 sequence (looked up): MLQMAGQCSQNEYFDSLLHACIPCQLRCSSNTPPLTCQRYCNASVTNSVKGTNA
Assay: indirect ELISA, plate coated with human BCMA-His at 2 μg/ml, detection with HRP goat anti-human Fcγ

B1: BCMA Benchmark1 (antibody sequence of GSK2857916) (antibody, human IgG1, kappa, V domains shown)
VH: QVQLVQSGAEVKKPGSSVKVSCKASGGTFSNYWMHWVRQAPGQGLEWMGATYRGHSDTYYNQKFKGRVTITADKSTSTAYMELSSLRSEDTAVYYCARGAIYDGYDVLDNWGQGTLVTVSS
VL: DIQMTQSPSSLSASVGDRVTITCSASQDISNYLNWYQQKPGKAPKLLIYYTSNLHSGVPSRFSGSGSGTDFTLTISSLQPEDFATYYCQQYRKLPWTFGQGTKLEIKR
notes: also called BCMA-BM1
B1: binds.

B2: BCMA-VHH-2B11纳米抗体 (抗人BCMA纳米抗体, 含有Fc tag) (Fc fusion)
chain: QVQLVESGGGLVQAGGSLRLSCAASGGTFNNDNVGWFRQAPGKEREFVAVISWRGDGTDYADSVKGRFTISRDYAKKMVYLQMNSLQPKDTAVYYCAVGDGSRWRGAYAYWGQGTRVTVSS
notes: Expressed in Expi293F cells and purified on Protein A/G. It was tested as VHH with an Fc tag, about 35 kDa on SDS-PAGE; also called anti-human BCMA nanobody; not shown: Fc tag
B2: binds.
